# Results taken from US10398760B2, “Method of treating pain using agents that promote neuronal differentiation” (priority 2016, dated 2019).
# Entries after “also recorded” stand apart in the source; their conditions may differ.
# B1: NT4: neurotrophin 4, a TrkB ligand and inducer of neuronal differentiation (protein)
# chain: GVSETAPASRRGELAVCDAVSGWVTDRRTAVDLRGREVEVLGEVPAAGGSPLRQYFFETRCKADNAEEGGPGAGGGGCRGVDRRHWVSECKAKQSYVRALTADAQGRVGWRWIRIDTACVCTLLSRTGRA
# B2: BDNF: brain-derived neurotrophic factor, TrkB ligand and promoter of neuronal differentiation, injected intrathecally (protein)
# chain: HSDPARRGELSVCDSISEWVTAADKKTAVDMSGGTVTVLEKVPVSKGQLKQYFYETKCNPMGYTKEGCRGIDKRHWNSQCRTTQSYVRALTMDSKKRIGWRFIRIDTSCVCTLTIKRGR
# How the values were obtained:
# [1] = test system: rats subjected to chronic constriction injury of the sciatic nerve (CCI) or Sham surgery; experiment: Mechanical nociceptive sensitivity (von Frey filaments) in CCI and Sham rats; assay type: in vivo, rat
# [2] = test system: Mash1, DCX and Notch3 expression in spinal cord gray matter; experiment: Immunofluorescence quantification of immature neuron markers in spinal cord gray matter; assay type: in vivo, rat; settings: vs CCI+Veh
# [3] = test system: rats subjected to chronic constriction injury of the sciatic nerve (CCI) or Sham surgery; experiment: Thermal nociceptive sensitivity (Hargreaves method, radiant heat withdrawal latency) in CCI and Sham rats; assay type: in vivo, rat
# [4] = test system: human with chronic pain as a result of injury; experiment: Use of Dihexa to treat chronic pain in a human (numeric rating scale, dolorimetric); assay type: in vivo; settings: oral; for pain reported by the subject: 200 miligrams/day
# Protocol: Dihexa (N-hexanoic-Tyr-Ile-(6)aminohexanoic amide), an activator of c-Met receptor, is administered orally, 200 miligrams/day for 4 weeks, to a human for the purpose of treating pain. The subject is having chronic pain for the previous 6 months, as a result of injury. Before the beginning of treatment, and weekly thereafter for 6 months, the subject is tested for pain levels using a combination of subjective (numeric rating scale) and physiological (dolorimetric) evaluation methods.
# [5] = test system: human patient diagnosed with fibromyalgia; experiment: Use of NT4 to treat pain in a human patient diagnosed with fibromyalgia; assay type: in vivo; settings: for pain reported by the patient: injected into the spinal canal every other day for 3 weeks
# Protocol: NT4 is a TrkB ligand and inducer of neuronal differentiation that may be used to treat pain. NT4 (200 microliters, 1 microgram/ml) is injected every other day for 3 weeks (10 injections total) into the spinal canal of a human patient diagnosed with fibromyalgia. […] To prevent pain reoccurrence, a maintenance dose of 7,8-dihydroxy-4′-dimethylaminoflavone-8-O-glucozide (3-4 grams per day for 4-5 consecutive days) may be administered every month.
# [6] = intraperitoneal DHF treatment delayed for 3 weeks after CCI
# [7] = intrathecal BDNF treatment delayed for 3 weeks after CCI
# [8] = intrathecal injection every other day for first 3 weeks after CCI/Sham surgery, tested weekly, vs vehicle
molecule,measurement,setting,value
"O=c1cc(-c2ccccc2)oc2c(O)c(O)ccc12 [DHF, 7,8-dihydroxyflavone, reference compound]",duration of the decrease in pain,[1]; DHF intraperitoneal treatment applied for only 3 weeks,3 months
same,long-term mechanical pain sensitivity,[1]; [6],extended long-term decrease in mechanical and thermal pain susceptibility; also recorded: long-term decrease in pain sensitivity
same,mechanical pain sensitivity / mechanical pain threshold,"[1]; intraperitoneal injection every other day for 3 weeks immediately after CCI/Sham surgery, vs vehicle",reduces long-term mechanical pain susceptibility; also recorded: long-term increase in mechanical pain threshold (decrease in pain sensitivity)
same,"expression of immature neuron markers Mash1, DCX and Notch3","[2]; intraperitoneal injection every other day for 3 weeks after CCI, spinal cords taken after 4 weeks","reduces the expression of Mash1, DCX and Notch3; also recorded: reducing the expression of all three markers"
same,long-term thermal pain sensitivity,[3]; [6],extended long-term decrease in mechanical and thermal pain susceptibility; also recorded: long-term decrease in pain sensitivity
N-hexanoic-Tyr-Ile-(6)aminohexanoic amide [Dihexa],time until increased pain sensitivity may reoccur,[4]; 200 miligrams/day for 4 weeks,3 months
same,pain reported by the subject,[4]; after 2 weeks of treatment,decreased pain
same,pain reported by the subject,[4]; after 4 weeks of treatment,pain sensitivity is back to normal levels
B1,pain reported by the patient,[5]; after 2 weeks,decreased pain
same,pain reported by the patient,[5]; after 3-4 weeks,no pain
same,pain reported by the patient,[5]; after 4-5 days,increased pain
same,time after which the increase in pain subsides,"[5]; injected into the spinal canal every other day, with continued treatment",7 to 10 days
B2,duration of the decrease in pain,[1]; BDNF intrathecal treatment applied for only 3 weeks,3 months
same,long-term mechanical pain sensitivity,[1]; [7],long-term reduction in pain and pain susceptibility; also recorded: long-term decrease in pain sensitivity
same,mechanical nociceptive (pain) sensitivity / mechanical pain threshold,[1]; [8],reduction in mechanical pain susceptibility (increased pain threshold); also recorded: long-term increase in mechanical pain threshold (decrease in pain sensitivity)
same,"expression of immature neuron markers Mash1, DCX and Notch3","[2]; intrathecal injection every other day for 3 weeks after CCI, spinal cords taken at week 4","reduction in the expression of Mash1, DCX and Notch3; also recorded: reducing the expression of all three markers"
same,initial short-term increase in thermal pain sensitivity (duration),[3]; [7],2 to 3 days
same,long-term thermal pain sensitivity,[3]; [7],reduced thermal pain susceptibility; also recorded: long-term decrease in pain sensitivity
same,thermal nociceptive (pain) sensitivity,[3]; [8],may increase long-term sensitivity to thermal pain; also recorded: increased long-term thermal pain sensitivity
